Data published in patent publication US4732933A, “Neocarzinostatin complexes, a method for producing the same, and an antitumor agent containing said complexes as an active component” (Kayaku Antibiotics Research Co., Ltd., priority 1982, dated 1988).

Experiments:
[1] = system: normal fibroblasts of rabit; test: Cell toxicity to normal fibroblasts; format: cell-based; design: key to Cell toxicity to normal fibroblasts: +: Intensity of toxicity; -: No toxicity; conditions: for Cell toxicity to normal fibroblasts: judgement after 3 days
From the text: Comparison of cell toxicity
to normal fibroblasts of rabit*
*Judgement after 3 days

cancer VX-2 of liver = test: Tumor affinity in cancer VX-2 of liver after intravenous injection; format: in vivo, rabit
From the text: Tumor affinity in cancer VX-2 of liver of
rabit after intravenous injection of SMANX

[2] = Solubility of SMANX in various solvents compared with NCS and starting copolymer (Table 1); format: physicochemical; conditions: concentration: 1 mg/ml
Procedure: |(concentration: 1 mg/ml)

Row | Compound | Cell toxicity to normal fibroblasts ([1]; 0.1 μg/ml) | Cell toxicity to normal fibroblasts ([1]; 1.0 μg/ml) | LD50 ([1]; footnote to Table 8 (Cf.)) | Tumor affinity, distant site (normal liver) (cancer VX-2 of liver; 10 mg/kg, 90') | Tumor affinity, interior of tumor (cancer VX-2 of liver; 10 mg/kg, 90') | Tumor affinity, distant site (normal liver) (cancer VX-2 of liver; 15') | Tumor affinity, interior of tumor (cancer VX-2 of liver; 15') | Tumor affinity, distant site (normal liver) (cancer VX-2 of liver; 60') | Tumor affinity, interior of tumor (cancer VX-2 of liver; 60') | Solubility in 10 mM aqueous solution of sodium bicarbonate [2] | Solubility in Acetone [2] | Solubility in Dioxane [2] | Solubility in Lipiodol [2] | Solubility in Methanol [2] | Solubility in Pyridine [2] | Solubility in Water pH 5.0 ([2]; pH 5.0) | Solubility in Water pH 8.0 ([2]; pH 8.0)
1 | CO[C@@]12[C@H](COC(N)=O)C3=C(C(=O)C(C)=C(N)C3=O)N1C[C@@H]1N[C@@H]12 [Mitomycin C, reference compound] | + |  |  |  |  |  |  |  |  |  |  |  |  |  |  |  | 
2 | neocarzinostatin [NCS] | - | + | 1.0 µg/mL | 0 | 0 | 0 | 0 | 0 | 0 | soluble | insoluble | insoluble | insoluble | insoluble | insoluble | soluble | soluble
